Results on six molecules are retold here after patent publication US11840574B2, “Anti-DR5 antibody and use thereof” (DONG-A ST CO., LTD., priority 2017, dated 2023).

The target of this test is Human DR5 (Homo sapiens, UniProt O14763). The experiment in a line: Binding affinity of antibody to human DR5 (BIAcore, CM5 chip). Particulars: for Ka(1/Ms): association rate, Human DR5, 1:1 Langmuir binding model; for Kd: equilibrium dissociation constant, Human DR5. The protocol: In order to measure affinity, human DR5 was coupled to carboxylated dextran biosensor chips (CM5, GE) according to the manufacturer's instruction. Association and dissociation rates were assessed by injecting IgG proteins that were 2-fold serially diluted to 5 nM, 2.5 nM, 1.25 nM, 0.625 nM, 0.313 nM, and 0.156 nM.
Association and dissociation rates were depicted in association and dissociation sensorgrams and calculated using a simple 1:1 Langmuir binding model (BIAcore X100 Evaluation Software, ver. 2.0). The equilibrium dissociation constants (KD), which is the ratio of dissociation constant (Kd) to association constant (Ka), were confirmed to be in the sub-nanomolar range. Measurements of the binding of antibody D0 and DA1 to DA35 of the present disclosure to DR5 are given in Table 11 below (antibody names are given as the names of the clones from which the antibodies were derived). A representative sensorgram for D0 is depicted in FIG. 1.
In general terms: In SPR one partner is held on a chip, and binding of the other changes the refractive index at the surface.

One may read the Kd as the constant that tells how readily two partners part at equilibrium. A higher Kd goes with a looser complex.

B1: DA25: humanized or deimmunized variant of parental clone D0; CDRs SEQ ID NO 1, 2, 7 / 4, 10, 13 (antibody, V domains shown)
VH: AVTLDESGGGLQTPGGGLSLVCKGSGFTFSSFNMLWVRQAPGKGLEWVAGIGKSDRYTGYGSAVKGRATISRDDGQSTVYLQMNSLRAEDTGTYYCVKDAGSGCGSGGWTGACIDTWGHGTEVIVSS
VL: LTQPSSVSANLGGTVEITCSGGDSYAGSYYYGWYQQKAPGSAPVTVIYNNNNRPSNIPSRFSGSTSGSTATLTITGVQAEDEAVYFCGSRDSSYVGIFGAGTTLTVL
As to B1, the “Ka(1/Ms)” value was 1.05 × 10^06 1/Ms and the Kd worked out at 1.62 pM.

B2: DA31: humanized or deimmunized variant of parental clone D0; CDRs SEQ ID NO 1, 2, 7 / 4, 10, 13 (antibody, V domains shown)
VH: AVTLDESGGGLQTPGGGLSLVCKGSGFTFSSFNMLWVRQAPGKGLEWVAGIGKSDRYTGYGSAVKGRATISRDDGQSTARLQMNSLRAEDTGTYYCVKDAGSGCGSGGWTGACIDTWGHGTEVIVSS
VL: LTQPSSVSANLGGTVEITCSGGDSYAGSYYYGWYQQKAPGSAPVTVIYNNNNRPSNIPSRFSGSTSGSTATLTITGVQAEDEATYFCGSRDSSYVGIFGAGTTLTVL
As to B2, the “Ka(1/Ms)” value was 1.24 × 10^06 1/Ms and the Kd was 70.6 pM.

B3: DA26: humanized or deimmunized variant of parental clone D0; CDRs SEQ ID NO 1, 2, 7 / 4, 10, 13 (antibody, V domains shown)
VH: AVTLDESGGGLQTPGGGLSLVCKGSGFTFSSFNMLWVRQAPGKGLEWVAGIGKSDRYTGYGSAVKGRATISRDDGQSTVYLQMNSLRAEDTGTYYCVKDAGSGCGSGGWTGACIDTWGHGTEVIVSS
VL: LTQPSSVSANLGGTVEITCSGGDSYAGSYYYGWYQQKAPGSAPVTVIYNNNNRPSNIPSRFSGSTSGSTATLTITGVQAEDEATYYCGSRDSSYVGIFGAGTTLTVL
As for B3, the “Ka(1/Ms)” value is 1.09 × 10^06 1/Ms and the affinity, expressed as Kd, was 1.01 pM.

B4: DA30: humanized or deimmunized variant of parental clone D0; CDRs SEQ ID NO 1, 2, 7 / 4, 10, 13 (antibody, V domains shown)
VH: AVTLDESGGGLQTPGGGLSLVCKGSGFTFSSFNMLWVRQAPGKGLEWVAGIGKSDRYTGYGSAVKGRATISRDDGQSTAYLQMNSLRAEDTGTYYCVKDAGSGCGSGGWTGACIDTWGHGTEVIVSS
VL: LTQPSSVSANLGGTVEITCSGGDSYAGSYYYGWYQQKAPGSAPVTVIYNNNNRPSNIPSRFSGSTSGSTATLTITGVQAEDEATYYCGSRDSSYVGIFGAGTTLTVL
For B4, the “Ka(1/Ms)” value is on record as 1.03 × 10^06 1/Ms and binding was characterised by a dissociation constant (Kd) of 77.4 pM.

B5: DA28: humanized or deimmunized variant of parental clone D0; CDRs SEQ ID NO 1, 2, 7 / 4, 10, 13 (antibody, V domains shown)
VH: AVTLDESGGGLQTPGGGLSLVCKGSGFTFSSFNMLWVRQAPGKGLEWVAGIGKSDRYTGYGSAVKGRATISRDDGQSTARLQLNNLRAEDTGTYYCVKDAGSGCGSGGWTGACIDTWGHGTEVIVSS
VL: LTQPSSVSANLGGTVEITCSGGDSYAGSYYYGWYQQKAPGSAPVTVIYNNNNRPSNIPSRFSGSTSGSTATLTITGVQAEDEAVYFCGSRDSSYVGIFGAGTTLTVL
As for B5, the “Ka(1/Ms)” value is recorded as 1.16 × 10^06 1/Ms and binding was put at a Kd of 3.89 pM.

B6: DA27: humanized or deimmunized variant of parental clone D0; CDRs SEQ ID NO 1, 2, 7 / 4, 10, 13 (antibody, V domains shown)
VH: AVTLDESGGGLQTPGGGLSLVCKGSGFTFSSFNMLWVRQAPGKGLEWVAGIGKSDRYTGYGSAVKGRATISRDDGQSTVRLQLNNLRAEDTGTYYCVKDAGSGCGSGGWTGACIDTWGHGTEVIVSS
VL: LTQPSSVSANLGGTVEITCSGGDSYAGSYYYGWYQQKAPGSAPVTVIYNNNNRPSNIPSRFSGSTSGSTATLTITGVQAEDEATYFCGSRDSSYVGIFGAGTTLTVL
On to B6, for which the “Ka(1/Ms)” value was 1.17 × 10^06 1/Ms and the Kd was 1.92 pM.
